From patent publication US20130224224A1 (Boehringer Ingelheim, published 2013)
Substitutions are numbered along the chain they refer to. In names and notes the source's numbering stands. Read-outs that look alike come from different tables or passages of the source. Each block holds one binder with its values, some of them ahead of it.

What was measured:
[1] = molecular target: T1, human CX3CR1 (human, UniProt P49238 1-355); test: cell-based or functional assay
T1 sequence: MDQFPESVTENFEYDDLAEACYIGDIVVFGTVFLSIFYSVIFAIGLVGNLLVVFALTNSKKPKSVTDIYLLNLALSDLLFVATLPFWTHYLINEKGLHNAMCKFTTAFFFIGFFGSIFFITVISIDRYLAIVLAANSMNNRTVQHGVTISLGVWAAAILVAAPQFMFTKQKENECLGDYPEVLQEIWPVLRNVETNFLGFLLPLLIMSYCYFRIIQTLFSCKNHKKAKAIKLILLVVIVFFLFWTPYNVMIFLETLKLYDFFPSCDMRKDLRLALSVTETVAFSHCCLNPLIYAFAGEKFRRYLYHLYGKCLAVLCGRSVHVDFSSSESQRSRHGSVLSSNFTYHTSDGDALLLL

[2] = molecular target: T1, human CX3CR1; test: A647-fractalkine competition FACS, BA/F3-huCX3CR1
[3] = molecular target: T1, human CX3CR1; test: A647-fractalkine competition FACS, BA/F3-huCX3CR1; remark: listed apart in the source
[4] = molecular target: T1, human CX3CR1; test: cell-based or functional assay; remark: listed apart in the source
[5] = molecular target: T1, human CX3CR1; test: A647-fractalkine competition FACS, BA/F3-huCX3CR1; remark: listed apart in the source
[6] = molecular target: T1, human CX3CR1; test: cell-based or functional assay; remark: listed apart in the source

B1: 306D-hFc (Fc fusion)
chain: DVQLVESGGGLVQPGGSLRLSCAASGSIFSSTAMAWYRQAPGKRRDLVAAISSVGVTKYADSVKGRFTISRDNSKNTVYLQMNSLRPEDTAVYYCTSDPRRGWDTRYWGQGTLVTVSSGGGGSGGGGSGGGGSCPPCPAPEAAGGPSVFLFPPKPKDTLMISRTPEVTCVVVDVSHEDPEVKFNWYVDGVEVHNAKTKPREEQYNSTYRVVSVLTVLHQDWLNGKEYKCKVSNKALPAPIEKTISKAKGQPREPQVYTLPPSREEMTKNQVSLTCLVKGFYPSDIAVEWESNGQPENNYKTTPPVLDSDGSFFLYSKLTVDKSRWQQGNVFSCSVMHEALHNHYTQKSLSLSPGK
notes: CX3CR1BII00306 fused to a human IgG1 Fc domain with two mutations in CH2; expressed in HEK293T or NS0 cells
IC50, Calcium influx [1]: 1.3 nM
IC50, Chemotaxis [1]: 2.9 nM
IC50, Ligand internalization [1]: 0.48 nM
IC50 [2]: 0.69 nM

B2: 307D-hFc (Fc fusion)
chain: B1 chain with S53T
notes: CX3CR1BII00307 fused to a human IgG1 Fc domain with two mutations in CH2; expressed in HEK293T or NS0 cells
IC50, Calcium influx [1]: 3.2 nM
IC50, Chemotaxis [1]: 3 nM
IC50, Ligand internalization [1]: 0.37 nM
IC50 [2]: 0.7 nM

Now from value to binder:

IC50 [3]: 0.67 nM
% block, fractalkine induced chemotaxis [4]: 98%
IC50, fractalkine induced chemotaxis [4]: 0.9 nM
B3: CX3CR1BII027 (VHH)
chain: EVQLVESGGGLVQAGGSLRLSCVASGRTFSSYAMGWFRQAPGKERAFVAGISGSASRKYYADSVKGRFTVSRDNARNTVYLQMNSLKPEDTAVYYCAASNSYPKVQFDYYGQGTQVTVSSGGGGSGGGGSGGGGSGGGGSGGGGSGGGGSGGGGSEVQLVESGGGSVQAGESLRLSCAASGSIFSSNAMAWYRQAPGKQRDLVAGINSVGITKYADSVKGRFTISRDNAKNTAYLQMNSLKPEDTAVYYCTSDPRRGWDTRYWGQGTLVTVSS
notes: expressed in E. coli as described for the monovalent VHHs

IC50 [5]: 0.57 nM
IC50, Calcium influx [6]: 0.98 nM
IC50, Chemotaxis [6]: 0.89 nM
IC50, Ligand internalization [6]: 0.52 nM
B4: 66B02-mFc (Fc fusion)
chain: EVQLVESGGGSVQAGESLRLSCAASGSIFSSNAMAWYRQAPGKRRDLVAAINSVGVTKYADSVKGRFTISRDNAKNTVYLQMNSLKPEDTAVYYCTSDPRRGWDTRYWGQGTLVTVSSGGGGSGGGGSGGGGSPPCKCPAPNLLGGPSVFIFPPKIKDVLMISLSPIVTCVVVAVSEDDPDVQISWFVNNVEVHTAQTQTHREDYNSTLRVVSALPIQHQDWMSGKEFKCKVNNKDLPAPIERTISKPKGSVRAPQVYVLPPPEEEMTKKQVTLTCMVTDFMPEDIYVEWTNNGKTELNYKNTEPVLDSDGSYFMYSKLRVEKKNWVERNSYSCSVVHEGLHNHHTTKSFSRTPGK
notes: 66B02 VHH fused to a mouse IgG2 Fc domain with D265A in CH2; expressed in HEK293T or NS0 cells; dimer form is told only as an aspect
